Assay results as given in publication PMC9460513, “The 5′-phosphate enhances the DNA-binding and exonuclease activities of human mitochondrial genome maintenance exonuclease 1 (MGME1)”.

T1: MGME1 (Homo sapiens, UniProt Q9BQP7 21-344)
T1 sequence: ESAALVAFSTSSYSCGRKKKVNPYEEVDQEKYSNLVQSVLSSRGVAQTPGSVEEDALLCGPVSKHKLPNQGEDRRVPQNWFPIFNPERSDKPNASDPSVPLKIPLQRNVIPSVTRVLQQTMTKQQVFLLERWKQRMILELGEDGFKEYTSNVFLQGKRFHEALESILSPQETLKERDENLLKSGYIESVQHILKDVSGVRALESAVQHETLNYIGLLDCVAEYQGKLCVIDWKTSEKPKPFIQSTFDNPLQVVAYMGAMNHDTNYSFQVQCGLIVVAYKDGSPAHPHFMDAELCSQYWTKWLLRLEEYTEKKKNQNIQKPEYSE


Assays:
[1] = biological target: T1, MGME1; experiment: fluorescence polarization; 10 mM EDTA; FP: 2 nM FAM-ssDNA, 20 mM Hepes pH 8.0 (at 37 C), 100 mM NaCl, 0.1 mg/ml BSA, 1 mM DTT, 10 mM EDTA, mixed at room temperature, 15 min; EMSA: 1 uM ssDNA, 20 mM Hepes pH 8.0, 100 mM NaCl, 1 mM DTT, 10 mM EDTA, room temperature 15 min, gel 0.35x TBE at 4 C; conditions: protein: recombinant, tags: His-SUMO tag removed by Ulp1, single strand
[2] = biological target: T1, MGME1; experiment: competition (fluorescence polarization); 10 mM EDTA; 140 nM MGME1 with 2 nM T20(5') preformed; FP: 2 nM FAM-ssDNA, 20 mM Hepes pH 8.0 (at 37 C), 100 mM NaCl, 0.1 mg/ml BSA, 1 mM DTT, 10 mM EDTA, mixed at room temperature, 15 min; EMSA: 1 uM ssDNA, 20 mM Hepes pH 8.0, 100 mM NaCl, 1 mM DTT, 10 mM EDTA, room temperature 15 min, gel 0.35x TBE at 4 C; conditions: protein: recombinant; tags: His-SUMO tag removed by Ulp1; single strand

Binder	Kd ([1]; label: 5'-6FAM) [nM]	Kd ([1]; label: 3'-6FAM) [nM]	other results
TTTTTTTTTTTTTTTTTTTT (ssDNA, 5' phosphate linkage of the FAM label) [T20(5')]	240 ± 36	–	–
TTTTTTTTTT (ssDNA) [T10(3')]	–	7500 ± 890	–
TTTTTTTTTTTTTTTTTTTT (ssDNA) [T20(3')]	–	330 ± 83	–
TTTTTTTTTTTTTTTTTTTT (ssDNA, 5'-phosphate) [T20(3')-5'p]	–	180 ± 5	–
TTTTTTTTTT (ssDNA, 5'-phosphate) [T10(3')-5'p]	–	1600 ± 75	–
AAAAAAAAAAAAAAAAAAAA (ssDNA, 5' phosphate linkage of the FAM label) [A20(5')]	1300 ± 170	–	–
TTTTTTTTTT (ssDNA, 5'-phosphate-tetrahydrofuran (abasic) before T10) [T10(3')-5'dSp]	–	340 ± 24	–
TTTTTTTTTT (ssDNA, 5' phosphate linkage of the FAM label) [T10(5')]	600 ± 150	–	–
TTTTTTTTTTTTTTTTTTTT (ssDNA) [T20 (unlabeled)]	–	–	Kd [2]: 250 ± 33 nM
